Where a chain is given by its changes, count along the chain named. Names may count otherwise.
B1: GLS3000 N53R one-arm antibody (antibody, human IgG1, kappa, L234A L235A, N297A, name in Kabat numbering)
light: DIVMTQSPLSLPVTPGEPASISCRSSQSLVHSNRNTYLHWYQQKPGQAPRLLIYKVSRRFSGVPDRFSGSGSGTDFTLKISRVEAEDVGVYYCGQGTQVPYTFGQGTKLEIKRTVAAPSVFIFPPSDEQLKSGTASVVCLLNNFYPREAKVQWKVDNALQSGNSQESVTEQDSKDSTYSLSSTLTLSKADYEKHKVYACEVTHQGLSSPVTKSFNRGEC
heavy: QVQLVESGGGVVQPGRSLRLSCAASGFTFSNAWMHWVRQAPGKGLEWVAQIKAKSNNYATYYAESVKGRFTISRDDSKNSLYLQMNSLKTEDTAVYYCRYVHYGAYYGVDAWGQGTTVTVSSASTKGPSVFPLAPSSKSTSGGTAALGCLVKDYFPEPVTVSWNSGALTSGVHTFPAVLQSSGLYSLSSVVTVPSSSLGTQTYICNVNHKPSNTKVDKKVEPKSCDKTHTCPPCPAPEAAGGPSVFLFPPKPKDTLMISRTPEVTCVVVDVSHEDPEVKFNWYVDGVEVHNAKTKPREEQYASTYRVVSVLTVLHQDWLNGKEYKCKVSNKALPAPIEKTISKAKGQPREPQVYTLPPSRCELTKNQVSLSCAVKGFYPSDIAVEWESNGQPENNYKTTPPVLDSDGSFFLVSKLTVDKSRWQQGNVFSCSVMHEALHNHYTQKSLSLSPDYKDDDDK
chain: EPKSSDKTHTCPPCPAPELLGGPSVFLFPPKPKDTLMISRTPEVTCVVVDVSHEDPEVKFNWYVDGVEVHNAKTKPREEQYNSTYRVVSVLTVLHQDWLNGKEYKCKVSNKALPAPIEKTISKAKGQPREPQVCTLPPSRDELTKNQVSLWCLVKGFYPSDIAVEWESNGQPENNYKTTPPVLDSDGSFFLYSKLTVDKSRWQQGNVFSCSVMHEALHNRYTQKSLSLSP
B2: GLS3000 Q93P one-arm antibody (antibody, human IgG1, kappa, L234A L235A, N297A, name in Kabat numbering)
light: B1 light with R58N, Q98P
heavy: B1 heavy
chain: B1 chain
B3: GLS3000 N53T one-arm antibody (antibody, human IgG1, kappa, L234A L235A, N297A, name in Kabat numbering)
light: B1 light with R58T
heavy: B1 heavy
chain: B1 chain
B4: GLS3000 R54W one-arm antibody (antibody, human IgG1, kappa, L234A L235A, N297A, name in Kabat numbering)
light: B1 light with R58N, R59W
heavy: B1 heavy
chain: B1 chain
B5: GLS3000 Q93R one-arm antibody (antibody, human IgG1, kappa, L234A L235A, N297A, name in Kabat numbering)
light: B1 light with R58N, Q98R
heavy: B1 heavy
chain: B1 chain
B6: GLS3000 R54T one-arm antibody (antibody, human IgG1, kappa, L234A L235A, N297A, name in Kabat numbering)
light: B1 light with R58N, R59T
heavy: B1 heavy
chain: B1 chain
B7: GLS3000 Q90D one-arm antibody (antibody, human IgG1, kappa, L234A L235A, N297A, name in Kabat numbering)
light: B1 light with R58N, Q95D
heavy: B1 heavy
chain: B1 chain
B8: GLS3000 R54G one-arm antibody (antibody, human IgG1, kappa, L234A L235A, N297A, name in Kabat numbering)
light: B1 light with R58N, R59G
heavy: B1 heavy
chain: B1 chain
B9: GLS3000 R54S one-arm antibody (antibody, human IgG1, kappa, L234A L235A, N297A, name in Kabat numbering)
light: B1 light with R58N, R59S
heavy: B1 heavy
chain: B1 chain
B10: GLS3000 N53V one-arm antibody (antibody, human IgG1, kappa, L234A L235A, N297A, name in Kabat numbering)
light: B1 light with R58V
heavy: B1 heavy
chain: B1 chain
B11: GLS3000 S52Q one-arm antibody (antibody, human IgG1, kappa, L234A L235A, N297A, name in Kabat numbering)
light: B1 light with S57Q, R58N
heavy: B1 heavy
chain: B1 chain
B12: GLS3000 P95L one-arm antibody (antibody, human IgG1, kappa, L234A L235A, N297A, name in Kabat numbering)
light: B1 light with R58N, P100L
heavy: B1 heavy
chain: B1 chain
B13: GLS3000 P95D one-arm antibody (antibody, human IgG1, kappa, L234A L235A, N297A, name in Kabat numbering)
light: B1 light with R58N, P100D
heavy: B1 heavy
chain: B1 chain
B14: GLS3000 Q90E one-arm antibody (antibody, human IgG1, kappa, L234A L235A, N297A, name in Kabat numbering)
light: B1 light with R58N, Q95E
heavy: B1 heavy
chain: B1 chain
B15: GLS3000 N53S one-arm antibody (antibody, human IgG1, kappa, L234A L235A, N297A, name in Kabat numbering)
light: B1 light with R58S
heavy: B1 heavy
chain: B1 chain
B16: GLS3000 N53W one-arm antibody (antibody, human IgG1, kappa, L234A L235A, N297A, name in Kabat numbering)
light: B1 light with R58W
heavy: B1 heavy
chain: B1 chain
B17: GLS3000 Q93E one-arm antibody (antibody, human IgG1, kappa, L234A L235A, N297A, name in Kabat numbering)
light: B1 light with R58N, Q98E
heavy: B1 heavy
chain: B1 chain
B18: GLS3000 S52P one-arm antibody (antibody, human IgG1, kappa, L234A L235A, N297A, name in Kabat numbering)
light: B1 light with S57P, R58N
heavy: B1 heavy
chain: B1 chain
B19: GLS3000 Q90A one-arm antibody (antibody, human IgG1, kappa, L234A L235A, N297A, name in Kabat numbering)
light: B1 light with R58N, Q95A
heavy: B1 heavy
chain: B1 chain
B20: GLS3000 Q93S one-arm antibody (antibody, human IgG1, kappa, L234A L235A, N297A, name in Kabat numbering)
light: B1 light with R58N, Q98S
heavy: B1 heavy
chain: B1 chain
B21: GLS3000 Q93D one-arm antibody (antibody, human IgG1, kappa, L234A L235A, N297A, name in Kabat numbering)
light: B1 light with R58N, Q98D
heavy: B1 heavy
chain: B1 chain
B22: GLS3000 N53Y one-arm antibody (antibody, human IgG1, kappa, L234A L235A, N297A, name in Kabat numbering)
light: B1 light with R58Y
heavy: B1 heavy
chain: B1 chain
B23: GLS3000 P95E one-arm antibody (antibody, human IgG1, kappa, L234A L235A, N297A, name in Kabat numbering)
light: B1 light with R58N, P100E
heavy: B1 heavy
chain: B1 chain
B24: GLS3000 R54E one-arm antibody (antibody, human IgG1, kappa, L234A L235A, N297A, name in Kabat numbering)
light: B1 light with R58N, R59E
heavy: B1 heavy
chain: B1 chain
B25: GLS3000 Q90P one-arm antibody (antibody, human IgG1, kappa, L234A L235A, N297A, name in Kabat numbering)
light: B1 light with R58N, Q95P
heavy: B1 heavy
chain: B1 chain
B26: GLS3000 P95S one-arm antibody (antibody, human IgG1, kappa, L234A L235A, N297A, name in Kabat numbering)
light: B1 light with R58N, P100S
heavy: B1 heavy
chain: B1 chain
B27: GLS3000 P95G one-arm antibody (antibody, human IgG1, kappa, L234A L235A, N297A, name in Kabat numbering)
light: B1 light with R58N, P100G
heavy: B1 heavy
chain: B1 chain
B28: GLS3000 Q93A one-arm antibody (antibody, human IgG1, kappa, L234A L235A, N297A, name in Kabat numbering)
light: B1 light with R58N, Q98A
heavy: B1 heavy
chain: B1 chain
B29: GLS3000 Q90S one-arm antibody (antibody, human IgG1, kappa, L234A L235A, N297A, name in Kabat numbering)
light: B1 light with R58N, Q95S
heavy: B1 heavy
chain: B1 chain
B30: GLS3000 R54Q one-arm antibody (antibody, human IgG1, kappa, L234A L235A, N297A, name in Kabat numbering)
light: B1 light with R58N, R59Q
heavy: B1 heavy
chain: B1 chain
B31: GLS3000 R54P one-arm antibody (antibody, human IgG1, kappa, L234A L235A, N297A, name in Kabat numbering)
light: B1 light with R58N, R59P
heavy: B1 heavy
chain: B1 chain
B32: GLS3000 R77S one-arm antibody (antibody, human IgG1, kappa, L234A L235A, N297A, name in Kabat numbering)
light: B1 light with R58N, R82S
heavy: B1 heavy
chain: B1 chain
B33: GLS3000 P95A one-arm antibody (antibody, human IgG1, kappa, L234A L235A, N297A, name in Kabat numbering)
light: B1 light with R58N, P100A
heavy: B1 heavy
chain: B1 chain

Target: T1, CD3 epsilon homodimer protein (UniProt P07766 23-126)
T1 construct: Construct of the homodimer is not described; also called CD3 (CD3 epsilon)
T1 sequence (P07766 23-126): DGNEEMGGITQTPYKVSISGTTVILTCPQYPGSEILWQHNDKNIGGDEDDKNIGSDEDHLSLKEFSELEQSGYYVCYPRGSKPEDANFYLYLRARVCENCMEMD
Assay: SPR Biacore T200, CD3e homodimer on chip, antibody analyte;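 note: CD3 epsilon homodimer amine-coupled on CM4 sensor chip, antibodies injected as analyte at 25 °C in HBS-EP+, ratio ≥0.8 taken as binding retained versus unaltered parent antibody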

| ratio of amounts bound (altered form/GLS3000) | Binder |
| --- | --- |
| 1.58 | B1 |
| 0.25 | B2 |
| 0.56 | B3 |
| 0.78 | B4 |
| 1.13 | B5 |
| 0.65 | B6 |
| 0.19 | B7 |
| 0.67 | B8 |
| 0.79 | B9 |
| 0.56 | B10 |
| 1.05 | B11 |
| 0.24 | B12 |
| 0.24 | B13 |
| 0.86 | B14 |
| 0.69 | B15 |
| 0.81 | B16 |
| 0.75 | B17 |

| ratio of amounts bound (altered form/GLS3000) | Binder |
| --- | --- |
| 0.33 | B18 |
| 0.5 | B19 |
| 0.96 | B20 |
| 0.72 | B21 |
| 0.67 | B22 |
| 0.39 | B23 |
| 0.58 | B24 |
| 0.27 | B25 |
| 0.43 | B26 |
| 0.37 | B27 |
| 0.85 | B28 |
| 0.73 | B29 |
| 0.68 | B30 |
| 0.84 | B31 |
| 0.92 | B32 |
| 0.63 | B33 |

Source: patent publication US20240270846A1 (published 2024)
